This note sets out measurements from patent US20180037641A1.

In assay [1] the target is P301S human tau, T34 isoform (1N4R), of P301S tg mice (line PS19) (human) (UniProt P10636). The assay is described as follows: cell-based or functional assay.
The target in the next assay is RD(LM)-HA (UniProt P10636). The assay is described as follows: cell-based or functional assay.
The target of a further assay is RD(LM)-YFP (UniProt P10636). The assay is described as follows: cell-based or functional assay.
The target of assay [2] is tau RD aggregates passing between HEK293 cells in the propagation assay (RD(LM) and RD(ΔK) constructs). The assay can be described thus: cell-based or functional assay.
Assay [3] addresses recombinant human tau, longest isoform hTau40 (441 aa) (human) (UniProt P10636). The assay is described as follows: SPR (Biacore), tau immobilised on CM-5 chip, antibody injected 0.78-400 nM. Background: SPR reads the build-up and loss of mass on a sensor chip optically.
Assay [4] addresses recombinant mouse tau, longest isoform mTau40 (432 aa) (mouse) (UniProt P10637). The description is as above.
Assay [5] addresses recombinant human tau, longest isoform hTau40 (441 aa) (human) (UniProt P10636). The assay can be described thus: SPR (BIAcore 2000), tau immobilised on CM-5 chip, antibody injected 0.11-7.5 µg/ml, 1:1 Langmuir global fit.
The target in assay [6] is recombinant mouse tau, longest isoform mTau40 (432 aa) (mouse) (UniProt P10637). Described as above.
Chain of recombinant mouse tau, longest isoform mTau40 (432 aa) (mouse) (P10637 other isoform, or with tags, fused parts or gaps limits assumed): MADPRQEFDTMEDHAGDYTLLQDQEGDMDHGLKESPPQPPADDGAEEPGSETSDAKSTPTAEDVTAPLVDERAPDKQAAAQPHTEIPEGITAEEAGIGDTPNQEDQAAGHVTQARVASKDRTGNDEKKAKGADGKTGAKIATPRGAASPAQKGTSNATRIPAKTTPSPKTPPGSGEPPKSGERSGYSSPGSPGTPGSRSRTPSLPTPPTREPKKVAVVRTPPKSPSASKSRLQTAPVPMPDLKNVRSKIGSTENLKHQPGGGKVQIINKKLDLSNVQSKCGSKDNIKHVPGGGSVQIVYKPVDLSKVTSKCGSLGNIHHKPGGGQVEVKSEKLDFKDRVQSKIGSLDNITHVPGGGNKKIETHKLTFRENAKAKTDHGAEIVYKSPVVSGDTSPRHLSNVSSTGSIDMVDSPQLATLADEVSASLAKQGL

HJ9.3 (antibody) showed an antibody concentration that significantly blocked uptake and seeding activity in assay [1] of 0.5 µg/mL. This substance also came in with an RD(ΔK)-YFP in the insoluble pellet fraction (detergent fractionation, Western blot) with RD(LM)-HA of 60 % decrease. In the assay with RD(LM)-YFP, this substance returned a percentage of RD(LM)-YFP/mCherry dual positive cells (flow cytometry) of 1.31%. The substance also showed a tau protein present in the cell medium (pull-down, Western blot) in assay [2] of 10 fold. Also, the Kd (usually the free concentration of one partner at which half of the binding sites on the other are occupied at equilibrium, for simple one-to-one binding) in assay [3] is 99 pM; in assay [4], 100 pM; in assay [5], 99 pM; in assay [6], 100 pM. The koff (commonly a measure of how fast the partners let go of each other) in assay [3] is 7.51e-06 s⁻¹; in assay [4] it was 9.16e-06 s⁻¹; in assay [5], 7.51e-06 s⁻¹; in assay [6], 9.16e-06 s⁻¹. Besides, the kon (as a rule, the rate constant with which the complex forms) in assay [3] came out at 75500 M⁻¹ s⁻¹; in assay [4] it was 86100 M⁻¹ s⁻¹; in assay [5] it was 75500 M⁻¹ s⁻¹; in assay [6], 86100 M⁻¹ s⁻¹.
As for HJ9.4 (antibody), the Kd in assay [3] amounted to 6900 pM; in assay [4], 2.24 pM; in assay [5] it was 6900 pM; in assay [6], 2.24 pM. Also, the koff in assay [3] turned out to be 0.00107 s⁻¹; in assay [4], 5.1e-07 s⁻¹; in assay [5], 0.00107 s⁻¹; in assay [6] it was 5.1e-07 s⁻¹. Also, the kon was determined as 153000 M⁻¹ s⁻¹ in assay [3], 228000 M⁻¹ s⁻¹ in assay [4], 153000 M⁻¹ s⁻¹ in assay [5] and 228000 M⁻¹ s⁻¹ in assay [6].
